Data reported in patent US5506202A, “Insulin derivatives, a process for the preparation thereof, the use thereof, and a pharmaceutical formulation containing them” (Hoechst Aktiengesellschaft, priority 1988, dated 1996).
Like-named read-outs stand apart in the source and are kept apart here.

Key:
[1] = isoelectric point (measured by isoelectric focusing); format: physicochemical; conditions: insulin derivatives of the invention
Experimental: Characteristic of these insulin derivatives is an isoelectric point between 5.8 and 8.5 (measured by isoelectric focusing). The isoelectric point--which is shifted into the neutral range by comparison with the isoelectric point of the unmodified native insulin or proinsulin (at pH = 5.4)--is determined by the additional positive charge(s) located on the surface of the molecule as a result of the basic modification. This makes these insulin derivatives with a basic modification less soluble in the physiological neutral range than is, for example, native insulin or proinsulin, which are normally in dissolved form in the neutral range.
The isoelectric point of the insulin derivatives of the formula II is between 5.5 and 9.0 (measured by isoelectric focusing).

[2] = unmodified native insulin or proinsulin, background; cited from earlier work

Substance	isoelectric point [1]	isoelectric point [2]
A0-Arg-de-Thr-B30-human insulin	about 6.2	–
native insulin: unmodified native insulin, comparison for isoelectric point and biological activity	–	5.4 pH
proinsulin: proinsulin, comparison for isoelectric point	–	5.4 pH
